Test results as given in publication PMC5938747.

System: Nc1ccn([C@@H]2O[C@H](COP(=O)(O)OP(=O)(O)O)[C@@H](O)[C@H]2O)c(=O)n1
Assay: purified protein
Conditions: 10 mM ATP, MgCl2 4 mM excess, pH 8.0, 25 °C

Q: What does the source list for “Cj1415 (cytidine diphosphoramidate kinase, CDK) (Campylobacter jejuni subsp. jejuni NCTC 11168 = ATCC 700819)”?
A: Km: 4.2 ± 0.7 mM; kcat: 0.64 ± 0.04 s⁻¹
